Measurements published in patent US20240016923A1.

What was measured:
Assay in all cases: dose-dependent ELISA, antigen captured by GNA lectin
[1] = molecular target: membrane-bound E1E2 (mbE1E2) (Hepatitis C virus, isolate H77C (genotype 1a)) (UniProt P27958)
[2] = molecular target: secreted E1E2 with c-Fos/c-Jun leucine zipper scaffold (sE1E2.LZ) (Hepatitis C virus H77; human)
[3] = molecular target: secreted E2 ectodomain (sE2), HCV E2 residues 384-661 (Hepatitis C virus, isolate H77C) (UniProt P27958)

Substance	Kd [1] [nM]	Kd [2] [nM]	fold lower affinity relative to mbE1E2 [2] [fold]	Kd [3] [nM]
AR4A (antibody)	2.3	16	8	–
AR5A (antibody)	1.5	1.7	–	–
CBH-4D (antibody)	28	26	–	1
CBH-4G (antibody)	7.8	18	–	0.5
CBH-7 (antibody)	1	1.7	–	0.3
HC33.1 (antibody)	3.8	0.9	–	1.9
HC84.24 (antibody)	–	–	–	0.7
HC-1 AM (affinity-matured HC-1 antibody)	1.5	2.9	–	3.6
HC-11 (antibody)	1.8	3.2	–	11
HCV1 (antibody)	9.8	3.5	–	6.2
